From paper PMC4623018, “Studies on the catalytic domains of multiple JmjC oxygenases using peptide substrates” (Epigenetics, 2014)
Ends that are not written are not given here. Me3 = trimethyl on the lysine side-chain amine

Molecular target: T1, KDM4A catalytic domain (human, UniProt O75164 1-359)
T1 construct: The limits 1-359 are those of the KDM4A catalytic domain used in the activity assays; also called KDM4A (1–359); 4A(1–359); source: E. coli, purified as previously described
T1 sequence (looked up): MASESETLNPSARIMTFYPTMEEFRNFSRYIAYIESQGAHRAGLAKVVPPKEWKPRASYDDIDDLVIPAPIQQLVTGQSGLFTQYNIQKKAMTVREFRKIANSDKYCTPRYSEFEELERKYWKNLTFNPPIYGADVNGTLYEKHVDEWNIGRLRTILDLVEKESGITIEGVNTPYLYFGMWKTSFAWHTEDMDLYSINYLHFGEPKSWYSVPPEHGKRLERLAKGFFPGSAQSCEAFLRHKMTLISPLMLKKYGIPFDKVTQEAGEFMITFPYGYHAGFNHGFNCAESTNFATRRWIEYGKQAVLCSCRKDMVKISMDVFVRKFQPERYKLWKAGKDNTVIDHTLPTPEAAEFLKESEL
Assay: crystal structure; KDM4A catalytic domain complexed with H3K27me3 peptides (25 residue and 5 residue)
Details: both partners purified

B1: 5 residue H3K27me3 peptide (peptide, UniProt P68431 26-30, looked up)
peptide: ARK(Me3)SA
notes: histone H3 fragment, residues 25-29; also called H3(25–29)K27me3
- binding result: binds
